According to IntAct's records for PubMed 29541021:

How the values were obtained:
1433f_human YWHAH = 1433f_human YWHAH (UniProt Q04917)
dnm1l_human DNM1L = dnm1l_human DNM1L (UniProt O00429)
Chain of dnm1l_human DNM1L (O00429 whole entry): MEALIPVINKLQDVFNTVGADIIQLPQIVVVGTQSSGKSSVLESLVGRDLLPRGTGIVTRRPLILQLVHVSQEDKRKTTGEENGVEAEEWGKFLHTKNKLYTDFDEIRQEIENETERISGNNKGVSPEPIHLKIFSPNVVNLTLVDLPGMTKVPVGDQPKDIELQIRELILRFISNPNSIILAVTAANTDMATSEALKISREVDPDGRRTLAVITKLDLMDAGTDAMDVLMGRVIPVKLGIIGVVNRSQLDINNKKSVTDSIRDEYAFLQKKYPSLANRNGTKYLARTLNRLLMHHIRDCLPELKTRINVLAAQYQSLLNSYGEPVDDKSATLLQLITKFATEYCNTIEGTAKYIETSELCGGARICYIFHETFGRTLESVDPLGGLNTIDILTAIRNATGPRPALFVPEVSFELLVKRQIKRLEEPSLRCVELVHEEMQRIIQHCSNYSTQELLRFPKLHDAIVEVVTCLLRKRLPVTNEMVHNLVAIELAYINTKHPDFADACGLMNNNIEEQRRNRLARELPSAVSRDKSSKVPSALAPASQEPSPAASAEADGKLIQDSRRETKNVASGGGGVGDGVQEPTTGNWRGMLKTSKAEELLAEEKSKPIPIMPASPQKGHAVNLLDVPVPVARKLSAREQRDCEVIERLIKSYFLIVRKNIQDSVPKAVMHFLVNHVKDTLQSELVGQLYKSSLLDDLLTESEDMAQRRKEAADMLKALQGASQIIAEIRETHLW

Chain of 1433f_human YWHAH (Q04917 whole entry): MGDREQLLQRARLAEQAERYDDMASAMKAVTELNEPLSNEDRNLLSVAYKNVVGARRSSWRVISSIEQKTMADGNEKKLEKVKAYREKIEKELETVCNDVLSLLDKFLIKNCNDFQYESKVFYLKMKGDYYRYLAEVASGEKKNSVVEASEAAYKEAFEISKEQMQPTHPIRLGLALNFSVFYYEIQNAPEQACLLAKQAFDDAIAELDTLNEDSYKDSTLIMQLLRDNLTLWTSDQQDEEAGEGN

effect of a mutation on the interaction (1433f_human YWHAH): decreasing interaction strength
effect of a mutation on the interaction (dnm1l_human DNM1L): increasing interaction strength
Substance: Leucine-rich repeat serine/threonine-protein kinase 2 (Homo sapiens), Q5S007 E193K
